Laboratory results from US20040091468, “Novel transcriptional mediators of blood vessel development and endothelial differentiation” (published 2004).

How the values were obtained:
[1] = target: T1, cELF-1 (Gallus gallus); experiment: competition; 5 or 50 ng cold competitor vs Tie1 P2 probe; unable to compete; settings: tags: none (TNT reticulocyte lysate)
T1 chain: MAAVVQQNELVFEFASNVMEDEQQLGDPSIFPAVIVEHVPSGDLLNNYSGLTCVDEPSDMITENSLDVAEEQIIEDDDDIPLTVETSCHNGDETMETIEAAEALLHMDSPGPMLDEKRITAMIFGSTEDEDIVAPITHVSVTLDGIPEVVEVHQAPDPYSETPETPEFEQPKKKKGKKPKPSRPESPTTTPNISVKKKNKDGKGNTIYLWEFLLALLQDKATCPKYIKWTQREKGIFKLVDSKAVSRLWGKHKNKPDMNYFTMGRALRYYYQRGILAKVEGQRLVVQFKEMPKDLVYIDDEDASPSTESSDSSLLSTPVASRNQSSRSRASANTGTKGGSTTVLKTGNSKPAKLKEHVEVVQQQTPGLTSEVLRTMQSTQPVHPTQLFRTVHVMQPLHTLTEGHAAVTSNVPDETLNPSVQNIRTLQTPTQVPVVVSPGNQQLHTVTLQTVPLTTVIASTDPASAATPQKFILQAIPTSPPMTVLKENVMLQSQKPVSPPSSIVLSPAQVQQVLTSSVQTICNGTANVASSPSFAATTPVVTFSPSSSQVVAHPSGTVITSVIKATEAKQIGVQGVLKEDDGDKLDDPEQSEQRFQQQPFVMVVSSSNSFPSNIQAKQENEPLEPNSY
Protocol: (§1) The ability of cELF-1 to bind to conserved Ets sites in the Tie1 promoter was examined. There are two Ets site doublets, P1 and P2 that are highly conserved in this promoter. The ability of cELF-1 to bind to these Ets sites was tested. As is shown in FIG. 8C, cELF-1 binds well to both of these Ets sites. […] When both of the Ets site were mutated (Mut 1,2) the oligonucleotides were unable to compete for binding. When the first Ets site was mutated, Mut 1, it competed only weakly with binding of cELF-1 to the Tie1 P2 probe.
(§2) Briefly, 20-μL samples containing 2 μL of in vitro-translated products or cell extracts were incubated with a solution containing ³²P-labeleddouble-stranded probes (30 000 cpm). Samples were incubated in the presence or absence of increasing amounts of cold competitor (5 or 50 ng) for 15 to 20 minutes at room temperature and run on a 4% polyacrylamide gel (acrylamide-bisacrylamide, 29:1) containing a buffer of 0.25×TBE (22.5 mmol/L Tris borate and 0.5 mmol/L EDTA).

[2] = target: T1, cELF-1; experiment: competition; 5 or 50 ng cold competitor vs Tie1 P2 probe; competes as well as wild type; settings: tags: none (TNT reticulocyte lysate)
Protocol: as §1, §2

[3] = target: T1, cELF-1; experiment: EMSA; binds well; wild type cold oligo competes; settings: tags: none (TNT reticulocyte lysate); label: 32P
Protocol: as §1, §2

[4] = target: T1, cELF-1; experiment: EMSA; anti-ELF-1 antibody interferes and supershifts; room temperature; settings: tags: none (TNT reticulocyte lysate); label: 32P
Protocol: The ability of in vitro translated human ELF-1 and cELF-1 to bind to the same Tie2 Ets sites was also examined. As is shown in FIG. 8A, both human and chicken ELF-1 form similar DNA-protein complexes with the Tie2 Ets sites (lane 2 and 3). The ability of an ELF-1 specific antibody to interfere with the formation of these complexes was also tested. This antibody was able to interfere with complex formation of both human and chicken ELF-1. […] Because several Ets factors may potentially bind to the Tie2 Ets site in vivo in the developing chicken we performed gel shift assays with the Tie2 Ets probe and cell extracts from the chicken CAM. As is shown in FIG. 8B, lane 3, a similar size complex is formed compared to the in vitro translated cELF-1.
as §2

[5] = target: T1, cELF-1; experiment: EMSA; binds well; room temperature; settings: tags: none (TNT reticulocyte lysate); label: 32P
Protocol: as §1, §2

B1: Tie1 P2 Mut1,2 (dsDNA)
DNA 1: CCATCATTTAATCTTAATCCCCAG
DNA 2: CTGGGGATTAAGATTAAATGATGG
B1: no binding [1].

B2: Tie1 P2 Mut2 (dsDNA)
DNA 1: CCATCATTTCCTCTTAATCCCCAG
DNA 2: CTGGGGATTAAGAGGAAATGATGG
B2: binds [2].

B3: Tie1 P2 (dsDNA)
DNA 1: CCATCATTTCCTCTTCCTCCCCAG
DNA 2: CTGGGGAGGAAGAGGAAATGATGG
B3: binds [3].

B4: Tie2 promoter Ets oligonucleotide (dsDNA)
DNA 1: TGCAAAGGAAACAGGAAAAAGGAACTTAAC
DNA 2: GTTAAGTTCCTTTTTCCTGTTTCCTTTGCA
B4: binds [4].

B5: Tie1 P1 (dsDNA)
DNA 1: ACTGGCTTCCTCCCTTTCCTGTCTC
DNA 2: GAGACAGGAAAGGGAGGAAGCCAGT
B5: binds [5].
